The values below come from patent US20230395193A1 (priority 2020, published 2023).

The experiment deals with SARS-CoV-1, MERS-CoV and SARS-CoV-2 proteins in HEK293T cells. Further details: species or system human.

B1: M-Q9BQT8 (protein, UniProt Q9BQT8 1-299, looked up)
Mitochondrial …: MSAKPEVSLVREASRQIVAGGSAGLVEICLMHPLDVVKTRFQIQRCATDPNSYKSLVDSFRMIFQMEGLFGFYKGILPPILAETPKRAVKFFTFEQYKKLLGYVSLSPALTFAIAGLGSGLTEAIVVNPFEVVKVGLQANRNTFAEQPSTVGYARQIIKKEGWGLQGLNKGLTATLGRHGVFNMVYFGFYYNVKNMIPVNKDPILEFWRKFGIGLLSGTIASVINIPFDVAKSRIQGPQPVPGEIKYRTCFKTMATVYQEEGILALYKGLLPKIMRLGPGGAVMLLVYEYTYSWLQENW
modifications: interaction partner of viral M protein
The molecule B1 came in with an MIST_MERS of 0.4327, an MIST_SARS1 of 0.6946, an MIST_SARS2 of 0.8808 and a Saint_MERS of 0. Besides, the Saint_SARS1 came out at 0.65 and the Saint_SARS2 was determined as 0.65.

B2: M-Q9NQC3 (protein, UniProt Q9NQC3 1-1192, looked up)
Reticulon-4: MEDLDQSPLVSSSDSPPRPQPAFKYQFVREPEDEEEEEEEEEEDEDEDLEELEVLERKPAAGLSAAPVPTAPAAGAPLMDFGNDFVPPAPRGPLPAAPPVAPERQPSWDPSPVSSTVPAPSPLSAAAVSPSKLPEDDEPPARPPPPPPASVSPQAEPVWTPPAPAPAAPPSTPAAPKRRGSSGSVDETLFALPAASEPVIRSSAENMDLKEQPGNTISAGQEDFPSVLLETAASLPSLSPLSAASFKEHEYLGNLSTVLPTEGTLQENVSEASKEVSEKAKTLLIDRDLTEFSELEYSEMGSSFSVSPKAESAVIVANPREEIIVKNKDEEEKLVSNNILHNQQELPTALTKLVKEDEVVSSEKAKDSFNEKRVAVEAPMREEYADFKPFERVWEVKDSKEDSDMLAAGGKIESNLESKVDKKCFADSLEQTNHEKDSESSNDDTSFPSTPEGIKDRSGAYITCAPFNPAATESIATNIFPLLGDPTSENKTDEKKIEEKKAQIVTEKNTSTKTSNPFLVAAQDSETDYVTTDNLTKVTEEVVANMPEGLTPDLVQEACESELNEVTGTKIAYETKMDLVQTSEVMQESLYPAAQLCPSFEESEATPSPVLPDIVMEAPLNSAVPSAGASVIQPSSSPLEASSVNYESIKHEPENPPPYEEAMSVSLKKVSGIKEEIKEPENINAALQETEAPYISIACDLIKETKLSAEPAPDFSDYSEMAKVEQPVPDHSELVEDSSPDSEPVDLFSDDSIPDVPQKQDETVMLVKESLTETSFESMIEYENKEKLSALPPEGGKPYLESFKLSLDNTKDTLLPDEVSTLSKKEKIPLQMEELSTAVYSNDDLFISKEAQIRETETFSDSSPIEIIDEFPTLISSKTDSFSKLAREYTDLEVSHKSEIANAPDGAGSLPCTELPHDLSLKNIQPKVEEKISFSDDFSKNGSATSKVLLLPPDVSALATQAEIESIVKPKVLVKEAEKKLPSDTEKEDRSPSAIFSAELSKTSVVDLLYWRDIKKTGVVFGASLFLLLSLTVFSIVSVTAYIALALLSVTISFRIYKGVIQAIQKSDEGHPFRAYLESEVAISEELVQKYSNSALGHVNCTIKELRRLFLVDDLVDSLKFAVLMWVFTYVGALFNGLTLLILALISLFSVPVIYERHQAQIDHYLGLANKNVKDAMAKIQAKIPGLKRKAE
Molecule B2 registered an MIST_MERS of 0, an MIST_SARS1 of 0.4448, an MIST_SARS2 of 0.8738 and a Saint_MERS of 0. Further, the Saint_SARS1 was 1 and the Saint_SARS2 was 1.

B3: M-Q9BV40 (protein, UniProt Q9BV40 1-100, looked up)
Vesicle-associated membrane …: MEEASEGGGNDRVRNLQSEVEGVKNIMTQNVERILARGENLEHLRNKTEDLEATSEHFKTTSQKVARKFWWKNVKMIVLICVIVFIIILFIVLFATGAFS
modifications: host interactor of M
For the molecule B3, the MIST_MERS is on record as 0.9874, the MIST_SARS1 is 0, the MIST_SARS2 worked out at 0 and the Saint_MERS came out at 1. This molecule returned a Saint_SARS1 of 0 and a Saint_SARS2 of 0.

B4: M-Q9BQ95 (protein, UniProt Q9BQ95 49-431, looked up)
Evolutionarily conserved …: SSEQSLVPSPPEPRQRPTKALVPFEDLFGQAPGGERDKASFLQTVQKFAEHSVRKRGHIDFIYLALRKMREYGVERDLAVYNQLLNIFPKEVFRPRNIIQRIFVHYPRQQECGIAVLEQMENHGVMPNKETEFLLIQIFGRKSYPMLKLVRLKLWFPRFMNVNPFPVPRDLPQDPVELAMFGLRHMEPDLSARVTIYQVPLPKDSTGAADPPQPHIVGIQSPDQQAALARHNPARPVFVEGPFSLWLRNKCVYYHILRADLLPPEEREVEETPEEWNLYYPMQLDLEYVRSGWDNYEFDINEVEEGPVFAMCMAGAHDQATMAKWIQGLQETNPTLAQIPVVFRLAGSTRELQTSSAGLEEPPLPEDHQEEDDNLQRQQQGQS
Molecule B4 had an MIST_MERS of 0, an MIST_SARS1 of 0.9893, an MIST_SARS2 of 0 and a Saint_MERS of 0. Further, the Saint_SARS1 is reported as 0.97 and the Saint_SARS2 was 0.

B5: M-Q9BYC5 (protein, UniProt Q9BYC5 1-575, looked up)
Alpha-(1,6)-fucosyltransferase: MRPWTGSWRWIMLILFAWGTLLFYIGGHLVRDNDHPDHSSRELSKILAKLERLKQQNEDLRRMAESLRIPEGPIDQGPAIGRVRVLEEQLVKAKEQIENYKKQTRNGLGKDHEILRRRIENGAKELWFFLQSELKKLKNLEGNELQRHADEFLLDLGHHERSIMTDLYYLSQTDGAGDWREKEAKDLTELVQRRITYLQNPKDCSKAKKLVCNINKGCGYGCQLHHVVYCFMIAYGTQRTLILESQNWRYATGGWETVFRPVSETCTDRSGISTGHWSGEVKDKNVQVVELPIVDSLHPRPPYLPLAVPEDLADRLVRVHGDPAVWWVSQFVKYLIRPQPWLEKEIEEATKKLGFKHPVIGVHVRRTDKVGTEAAFHPIEEYMVHVEEHFQLLARRMQVDKKRVYLATDDPSLLKEAKTKYPNYEFISDNSISWSAGLHNRYTENSLRGVILDIHFLSQADFLVCTFSSQVCRVAYEIMQTLHPDASANFHSLDDIYYFGGQNAHNQIAIYAHQPRTADEIPMEPGDIIGVAGNHWDGYSKGVNRKLGRTGLYPSYKVREKIETVKYPTYPEAEK
modifications: interaction partner of SARS-CoV-2 M
For B5, the MIST_MERS stood at 0.963, the MIST_SARS1 came to 0, the MIST_SARS2 stood at 0 and the Saint_MERS is reported as 0.98. The Saint_SARS1 stood at 0 and the Saint_SARS2 was 0.
